This is an account of results in paper doi:10.1101/2022.08.15.503920.

In general, stoichiometry N refers to a count of units in the complex or per binding partner.

Common to all, as to assay: SEC-SAXS
For orientation: In gel filtration, larger molecules generally elute earlier.

In data set [1] the target is L-lactate dehydrogenase from hog muscle (Sus scrofa) (UniProt P00339).
Data set [2] has the same target. The source holds these as a separate data set.
Data set [3] relates to P00924. The conditions noted are these: other: SEC-SAXS.
For data set [4], the target named is enolase from baker's yeast (baker's yeast) (UniProt P00924).
The target is the same in data set [5]. This is another data set of the same source.

“And” between values parts separate entries of the source, which are not always exact repeats. Identical values can stand only once. Like-named read-outs stand apart in the source and are kept apart here.

enolase from baker's yeast, sequence (P00924 whole entry): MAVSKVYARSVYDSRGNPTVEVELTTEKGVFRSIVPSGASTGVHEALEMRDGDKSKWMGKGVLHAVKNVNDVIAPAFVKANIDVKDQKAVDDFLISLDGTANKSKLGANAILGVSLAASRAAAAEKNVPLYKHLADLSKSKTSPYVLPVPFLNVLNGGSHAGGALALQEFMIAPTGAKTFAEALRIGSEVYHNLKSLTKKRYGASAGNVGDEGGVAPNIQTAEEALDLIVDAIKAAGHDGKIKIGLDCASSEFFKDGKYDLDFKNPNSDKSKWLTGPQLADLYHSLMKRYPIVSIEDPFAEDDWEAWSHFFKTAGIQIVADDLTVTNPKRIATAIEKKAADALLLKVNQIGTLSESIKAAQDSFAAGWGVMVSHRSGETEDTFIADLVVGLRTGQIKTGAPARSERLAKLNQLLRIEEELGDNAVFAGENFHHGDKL

Turning to “L-lactate dehydrogenase from hog muscle (from UniProt P00339 1-332) (enzyme)”, the stoichiometry N was 4 and 2 in data set [1]; 4 in data set [2].

For enolase from baker's yeast, in data set [3], the “share of monomer and dimer in the main peak body at 100 MPa” value is “∼50% monomer/dimer mixture”.

In the case of “enolase from baker's yeast (from UniProt P00924 1-437) (enzyme)”, the stoichiometry N in data set [4] and in data set [5] was 2 in each case.
